Measurements as given in the Human Domainome abundance scans (Beltran et al. 2025).
± gives the uncertainty stated by the source.

B1: Zinc finger homeobox protein 3, residues 2147 to 2202; numbered along this chain, Q15911 (parent)
chain: RPRTRITDDQLRVLRQYFDINNSPSEEQIKEMADKSGLPQKVIKHWFRNTLFKERQ

Variants of: B1
Test: abundance fitness (aPCA) (normalised: wild type 0, dead -1); higher = more abundant; growth selection in yeast, the domain comes from the species named
Settings: Homo sapiens

F18L and F18C are within error of each other in abundance fitness: -0.137 ± 0.072 for the first, -0.161 ± 0.093 for the second.

F18N and F18V are within error of each other in abundance fitness: -0.451 ± 0.17 for the first, -0.333 ± 0.072 for the second.

F18W and F18M are within error of each other in abundance fitness: 0.022 ± 0.077 for the first, -0.15 ± 0.1 for the second.

F18H and F18Y are within error of each other in abundance fitness: -0.259 ± 0.14 for the first, 0.016 ± 0.14 for the second.

F18G and F18A are within error of each other in abundance fitness: -0.263 ± 0.062 for the first, -0.187 ± 0.073 for the second.

F18R and F18T are within error of each other in abundance fitness: -0.069 ± 0.064 for the first, -0.109 ± 0.091 for the second.

Going from F18S to F18E, the abundance fitness falls from -0.1 ± 0.076 to -0.555 ± 0.091.

First: F18K
Second: F18D
The abundance fitness of the first is higher: -0.039 ± 0.11 for the first, -0.419 ± 0.11 for the second.

F18Q and Q28H are within error of each other in abundance fitness: -0.203 ± 0.095 for the first, -0.058 ± 0.13 for the second.

Q28I and Q28A are within error of each other in abundance fitness: -0.033 ± 0.13 for the first, -0.042 ± 0.081 for the second.

Q28G and Q28E are within error of each other in abundance fitness: -0.209 ± 0.066 for the first, -0.102 ± 0.096 for the second.

Q28D and Q28F are within error of each other in abundance fitness: -0.278 ± 0.14 for the first, -0.562 ± 0.15 for the second.

Q28K and Q28L are within error of each other in abundance fitness: -0.327 ± 0.12 for the first, -0.205 ± 0.075 for the second.

First: Q28C
Second: D19C
The abundance fitness of the first is lower: -0.423 ± 0.089 for the first, -0.094 ± 0.086 for the second.

D19S and D19H are within error of each other in abundance fitness: -0.015 ± 0.073 for the first, -0.034 ± 0.097 for the second.

Compared with D19Q, D19K is higher in abundance fitness: -0.207 ± 0.11 for the first, 0.101 ± 0.1 for the second.

D19F and D19W are within error of each other in abundance fitness: -0.171 ± 0.12 for the first, -0.131 ± 0.076 for the second.

Compared with D19P, D19N is higher in abundance fitness: -0.336 ± 0.11 for the first, -0.056 ± 0.1 for the second.

Going from D19G to D19E, the abundance fitness rises from -0.125 ± 0.061 to 0.022 ± 0.085.

D19I and D19V are within error of each other in abundance fitness: -0.051 ± 0.1 for the first, 0.014 ± 0.069 for the second.

D19Y and D19T are within error of each other in abundance fitness: 0.044 ± 0.12 for the first, -0.02 ± 0.089 for the second.

D19R and D19M are within error of each other in abundance fitness: -0.031 ± 0.061 for the first, 0.044 ± 0.1 for the second.

First: D19L
Second: P24M
The abundance fitness of the first is higher: 0.032 ± 0.075 for the first, -0.5 ± 0.12 for the second.

First: P24C
Second: P24Q
The abundance fitness of the first is higher: -0.534 ± 0.098 for the first, -0.747 ± 0.11 for the second.

P24G and P24N are within error of each other in abundance fitness: -0.685 ± 0.074 for the first, -0.873 ± 0.18 for the second.

Compared with P24L, P24D is lower in abundance fitness: -0.315 ± 0.076 for the first, -0.8 ± 0.11 for the second.

P24A and P24E are within error of each other in abundance fitness: -0.606 ± 0.082 for the first, -0.673 ± 0.11 for the second.

P24T and P24R are within error of each other in abundance fitness: -0.585 ± 0.1 for the first, -0.716 ± 0.071 for the second.

Compared with P24V, P24S is lower in abundance fitness: -0.413 ± 0.072 for the first, -1 ± 0.095 for the second.

P24I and P24H are within error of each other in abundance fitness: -0.652 ± 0.16 for the first, -0.566 ± 0.14 for the second.

P24F and P24Y are within error of each other in abundance fitness: -0.746 ± 0.15 for the first, -0.519 ± 0.13 for the second.

Going from P24W to S23T, the abundance fitness rises from -0.485 ± 0.088 to 0.102 ± 0.11.

S23K and S23F are within error of each other in abundance fitness: -0.07 ± 0.12 for the first, -0.025 ± 0.15 for the second.

Going from S23W to S23D, the abundance fitness rises from -0.243 ± 0.09 to 0.076 ± 0.14.

Going from S23A to S23G, the abundance fitness falls from -0.033 ± 0.08 to -0.268 ± 0.066.

S23N and S23C are within error of each other in abundance fitness: -0.14 ± 0.26 for the first, 0.081 ± 0.16 for the second.

Compared with S23R, S23I is lower in abundance fitness: -0.085 ± 0.073 for the first, -0.501 ± 0.23 for the second.

S23Q and S23Y are within error of each other in abundance fitness: 0.004 ± 0.12 for the first, -0.255 ± 0.2 for the second.

S23H and S23E are within error of each other in abundance fitness: 0.055 ± 0.28 for the first, -0.123 ± 0.093 for the second.

S23P and S23L are within error of each other in abundance fitness: -0.21 ± 0.15 for the first, -0.149 ± 0.087 for the second.

S23V and S23M are within error of each other in abundance fitness: -0.216 ± 0.072 for the first, -0.035 ± 0.13 for the second.

Compared with R15P, R15Q is higher in abundance fitness: -0.898 ± 0.091 for the first, -0.045 ± 0.08 for the second.

R15Y and R15G are within error of each other in abundance fitness: -0.127 ± 0.13 for the first, -0.256 ± 0.067 for the second.

Compared with R15H, R15V is lower in abundance fitness: 0.099 ± 0.11 for the first, -0.226 ± 0.077 for the second.

R15T and R15K are within error of each other in abundance fitness: -0.023 ± 0.084 for the first, -0.074 ± 0.091 for the second.

R15W and R15D are within error of each other in abundance fitness: -0.125 ± 0.073 for the first, -0.29 ± 0.12 for the second.

R15M and R15E are within error of each other in abundance fitness: -0.023 ± 0.084 for the first, -0.048 ± 0.082 for the second.

R15L and R15F are within error of each other in abundance fitness: -0.244 ± 0.066 for the first, -0.152 ± 0.13 for the second.

Going from R15A to R15S, the abundance fitness rises from -0.23 ± 0.073 to -0.067 ± 0.068.

Q16L and Q16H are within error of each other in abundance fitness: -0.091 ± 0.076 for the first, -0.101 ± 0.16 for the second.

Compared with Q16G, Q16V is lower in abundance fitness: 0.008 ± 0.068 for the first, -0.162 ± 0.074 for the second.

Q16M and Q16R are within error of each other in abundance fitness: -0.01 ± 0.086 for the first, 0.001 ± 0.062 for the second.

Q16S and Q16K are within error of each other in abundance fitness: 0.122 ± 0.076 for the first, 0.092 ± 0.093 for the second.

Q16F and Q16N are within error of each other in abundance fitness: -0.196 ± 0.18 for the first, -0.174 ± 0.29 for the second.

Q16E and Q16T are within error of each other in abundance fitness: -0.045 ± 0.091 for the first, -0.012 ± 0.091 for the second.

Going from Q16I to Q16D, the abundance fitness rises from -0.469 ± 0.18 to -0.025 ± 0.15.

Going from Q16A to Q16P, the abundance fitness falls from -0.065 ± 0.076 to -0.242 ± 0.1.

Compared with Q16W, L14W is lower in abundance fitness: -0.09 ± 0.075 for the first, -0.721 ± 0.1 for the second.

L14Y and L14P are within error of each other in abundance fitness: -1.02 ± 0.17 for the first, -1.05 ± 0.16 for the second.

First: L14D
Second: L14I
The abundance fitness of the first is lower: -0.932 ± 0.16 for the first, -0.217 ± 0.15 for the second.

Going from L14V to L14M, the abundance fitness rises from -0.49 ± 0.076 to 0.058 ± 0.1.

L14N and L14S are within error of each other in abundance fitness: -1.22 ± 0.21 for the first, -0.998 ± 0.11 for the second.

First: L14Q
Second: L14G
The abundance fitness of the first is lower: -1.13 ± 0.15 for the first, -0.876 ± 0.076 for the second.

Compared with L14K, L14H is higher in abundance fitness: -1.03 ± 0.18 for the first, -0.666 ± 0.14 for the second.

L14R and L14A are within error of each other in abundance fitness: -0.982 ± 0.083 for the first, -0.951 ± 0.094 for the second.

L14E and L14T are within error of each other in abundance fitness: -0.947 ± 0.12 for the first, -0.942 ± 0.12 for the second.

L14F and N21V are within error of each other in abundance fitness: -0.064 ± 0.16 for the first, -0.171 ± 0.071 for the second.

Going from N21C to N21F, the abundance fitness falls from -0.14 ± 0.11 to -0.421 ± 0.11.

First: N21D
Second: N21T
The abundance fitness of the first is lower: -0.102 ± 0.13 for the first, 0.152 ± 0.09 for the second.

N21Q and N21G are within error of each other in abundance fitness: -0.105 ± 0.1 for the first, -0.153 ± 0.077 for the second.

N21K and N21H are within error of each other in abundance fitness: -0.018 ± 0.1 for the first, -0.01 ± 0.13 for the second.

N21L and N21I are within error of each other in abundance fitness: -0.256 ± 0.079 for the first, -0.276 ± 0.13 for the second.

Compared with N21M, N21P is lower in abundance fitness: -0.103 ± 0.12 for the first, -0.335 ± 0.11 for the second.

N21S and N21E are within error of each other in abundance fitness: -0.013 ± 0.084 for the first, -0.005 ± 0.095 for the second.

Going from N21W to N21Y, the abundance fitness rises from -0.38 ± 0.12 to 0.014 ± 0.15.

N21A and R12Q are within error of each other in abundance fitness: -0.008 ± 0.074 for the first, -0.082 ± 0.086 for the second.

R12G and R12I are within error of each other in abundance fitness: -0.067 ± 0.063 for the first, 0.046 ± 0.098 for the second.

R12D and R12H are within error of each other in abundance fitness: -0.21 ± 0.093 for the first, -0.128 ± 0.12 for the second.

R12M and R12V are within error of each other in abundance fitness: 0.077 ± 0.083 for the first, 0.04 ± 0.065 for the second.

Compared with R12S, R12W is lower in abundance fitness: 0.018 ± 0.071 for the first, -0.456 ± 0.072 for the second.

Going from R12K to R12P, the abundance fitness falls from 0.051 ± 0.092 to -0.477 ± 0.086.

R12F and R12N are within error of each other in abundance fitness: -0.193 ± 0.12 for the first, -0.061 ± 0.11 for the second.

First: R12A
Second: R12Y
The abundance fitness of the first is higher: -0.122 ± 0.069 for the first, -0.4 ± 0.11 for the second.

R12T gave an abundance fitness of -0.205 ± 0.076.
